Where “and” joins values, the source holds several entries; their conditions need not be identical. Equal values may be shown once.
T1: His-tagged recombinant cynomolgus monkey VISTA-ECD (Met 1 to Ala 194) (cynomolgus monkey, UniProt Q9H7M9 33-194 (human entry))
T1 construct: also called cyno VISTA; Cyno VISTA
T1 chain: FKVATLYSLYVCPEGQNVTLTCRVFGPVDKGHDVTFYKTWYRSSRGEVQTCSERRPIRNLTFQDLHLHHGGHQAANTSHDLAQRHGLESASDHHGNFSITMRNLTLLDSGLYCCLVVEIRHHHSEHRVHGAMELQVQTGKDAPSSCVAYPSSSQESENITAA

T2: His-tagged recombinant mouse VISTA-ECD (Met 1 to Ala 194) (mouse, UniProt Q9D659 33-194)
T2 construct: Bought (Sino Biological); not shown: His tag
T2 sequence: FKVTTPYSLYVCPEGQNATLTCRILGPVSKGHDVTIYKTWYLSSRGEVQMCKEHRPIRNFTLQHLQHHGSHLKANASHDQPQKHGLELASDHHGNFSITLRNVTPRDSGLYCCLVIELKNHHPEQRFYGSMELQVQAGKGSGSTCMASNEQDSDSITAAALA

T3: His-tagged recombinant mouse VISTA-ECD (Met 1 to Ala 194) (Sino Biological) (mouse, UniProt Q9D659 33-194)
T3 construct: not shown: His tag
T3 sequence: T2 sequence

B1: Antibody No. 269.1 (antibody, human IgG1, kappa)
heavy: not shown
light: EIVLTQSPDFQSVTPKEKVTITCRASQSIGSSLHWYQQKPDQSPKLLIKYASQSISGVPSRFSGSGSGTDFTLTINSLEAEDAAAYYCHQSSSLPQTFGQGTKVEIKRTVAAPSVFIFPPSDEQLKSGTASVVCLLNNFYPREAKVQWKVDNALQSGNSQESVTEQDSKDSTYSLSSTLTLSKADYEKHKVYACEVTHQGLSSPVTKSFNRGEC
notes: Human IgG1, kappa
B2: Antibody No. 833.1 (antibody, human IgG1, kappa)
heavy: not shown
light: B1 light
notes: Human IgG1, kappa; also called Ab No. 833.1
B3: Antibody No. 457.1 (antibody, human IgG1, kappa)
heavy: not shown
light: EIVLTQSPATLSLSPGERATLSCGASQSVSSNYLAWYQQKPGLAPRLLIYGASSRATGVPDRFSGSGSGTDFTLTISRLEPEDFAVYYCQQYGYSYTFGQGTKLEIKRTVAAPSVFIFPPSDEQLKSGTASVVCLLNNFYPREAKVQWKVDNALQSGNSQESVTEQDSKDSTYSLSSTLTLSKADYEKHKVYACEVTHQGLSSPVTKSFNRGEC
notes: Human IgG1, kappa
B4: Antibody No. 457.1 (antibody, human IgG1, kappa)
heavy: not shown
light: B3 light
notes: human IgG1
B5: Antibody No. 269.1 (antibody, human IgG1, kappa)
heavy: not shown
light: B1 light
notes: human IgG1
B6: Antibody No. 833.1 (antibody, human IgG1, kappa)
light: B1 light
heavy: not shown
notes: also called Ab No. 833.1

How the values were obtained:
[1] = molecular target: T4, His-tagged recombinant human VISTA-ECD (Met 1 to Ala 194) (human, UniProt Q9H7M9 33-194); experiment: BLI Octet, reversed format (avidity): hu VISTA-ECD-His on HIS1K sensor, mAb 133.3 nM
T4 construct: also called hu.VISTA; VISTA-His; not shown: His tag

[2] = molecular target: T4, His-tagged recombinant human VISTA-ECD …; experiment: ELISA, His-tagged human VISTA ECD on plate, mAb titrated
Protocol: (§1) Nickel-coated 96-well ELISA plates (Thermo Scientific) or Maxisorb 96-well polystyrene ELISA plates were coated overnight at 4° C. with 50 μL of a 0.5-1 μg/mL solution of His-tagged VISTA protein (SinoBiological, Met1-Ala194 produced in HE293 cells) in 0.1M NaHCO₃ pH 9.6. All subsequent incubations were performed at room temperature. Wells were washed 3 times with PBST (0.05% Tween 20) and blocked for 2 h with 200 μL 5% BSA in PBST. […] Each antibody dilution was incubated at 50-100 μL/well in the ELISA plate for 1 h, after which plates were washed 3 times with PBST and incubated with a 1:20,000 dilution of Biotin SP AffiniPure Donkey Anti-Human IgG (H+L) polyclonal antibody (Jackson ImmunoResearch, 50-100 μL/well) for 1 h. Wells were washed 3 times with PBST, and the plates were incubated with 50-100 μL of a 1:200 dilution of Streptavidin-HRP (R&D Systems) for 30 min. Wells were washed 3 times with PBST and developed with 100 μL 1-Step Ultra Fast TMB Substrate (Thermo Scientific) for 2 minutes. The reaction was stopped with 100 μL 2N H₂SO₄, and plate well absorbance was measured at 450 nm (Biotek ELx808).
For human VISTA binding data, EC₅₀ values were calculated from nonlinear regression of log-transformed dose-response data.

[3] = molecular target: T1, His-tagged recombinant cynomolgus …; experiment: BLI Octet, mAb on AHC sensor, cyno VISTA-ECD-His 300 nM
Protocol: (§2) Octet scouting: Antibody affinities were measured using biolayer interferometry (BLI) on the Octet Red 96 (ForteBio) system. Anti-human IgG Fc Capture (AHC) dip and read sensors (ForteBio) were used to capture each anti-VISTA antibody formatted as either an IgG1 or IgG4 and diluted to 20 μg/mL in PBS pH 7.4. AHC sensors were dipped into antibody solution for 180 s to capture each IgG on the sensor. An initial baseline was established by soaking each sensor in PBS pH 7.4 for an additional 120 s. […] Human, cynomolgus monkey, and mouse VISTA-ECD were evaluated. Studies were performed by association with VISTA-ECD for 240 s and dissociation in PBS pH 7.4 for 360 s. Data analysis was performed using Octet Data Analysis software version 9.0.0.14. In general, baseline alignment without subtraction was used for raw data processing. A Savitzky-Golay digital filter was used to remove high-frequency noise, and processed data were globally fit to a 1:1 binding model. Where binding was present, the affinity constant (KD) was calculated for each antibody-antigen pair.

[4] = molecular target: T2, His-tagged recombinant mouse VISTA-ECD …; experiment: ELISA endpoint, His-VISTA on plate, mAb at 23 µg/mL
[5] = molecular target: T4, His-tagged recombinant human VISTA-ECD …; experiment: BLI Octet, mAb on AHC sensor, hu VISTA-ECD-His 50 nM
Protocol: as §2

[6] = molecular target: T4, His-tagged recombinant human VISTA-ECD …; experiment: ELISA endpoint, His-VISTA on plate, mAb at 2 µg/mL
Protocol: as §1

[7] = molecular target: T1, His-tagged recombinant cynomolgus …; experiment: ELISA endpoint, His-VISTA on plate, mAb at 2 µg/mL
Protocol: as §1

[8] = molecular target: T5, RFQ-VISTA-ECD-Fc (human); experiment: ELISA, 10 ug/mL antibody on plate-bound mutant VISTA-Fc
T5 construct: also called hVISTA ECD-Fc R54A, F62A, Q63A; human VISTA-Fc 54A62A63A
Protocol: (§3) ELISA was used to measure antibody binding to wild-type and mutant VISTA essentially as described above. VISTA-Fc (5 μg/mL) was immobilized on Maxisorb 96-well ELISA plates and reacted with each antibody diluted to 10 μg/mL in a standard ELISA format. Binding data were reported as absorbance at 450 nm.

[9] = molecular target: T6, his-tagged human VISTA-ECD (human, UniProt Q9H7M9 33-194); experiment: BLI sandwich binning; VISTA-ECD-His held by capture Ab 245.1 (competitor)
T6 construct: also called hu.VISTA; VISTA protein (Human recombinant, produced in HEK 293 cells, SinoBiologics); not shown: His tag

[10] = molecular target: T6, his-tagged human VISTA-ECD; experiment: BLI sandwich binning; VISTA-ECD-His held by capture Ab VSTB-174 (competitor)
Protocol: (§4) Octet binning studies: Epitope mapping was performed by BLI on the Octet system. AHC sensors were used to capture anti-VISTA antibody (20 μg/mL) over 100 s. Unbound sites on the sensor were blocked with a saturating amount (50 μg/mL) of pooled purified human IgG for 180 s. Antigen (his-tagged human VISTA-ECD at 100 nM) was bound to immobilized antibody for 180 s, after which the sensor was interrogated for the ability of a paired antibody to bind the antigen in the sandwiched format. Multiple pairing arrangements were interrogated such that each antibody was used as the capture antibody in the format at least one time. Data are represented as response (nm) for the secondary antibody.

[11] = molecular target: T6, his-tagged human VISTA-ECD; experiment: BLI sandwich binning; VISTA-ECD-His held by capture Ab 269.1 (competitor)
Protocol: as §4

[12] = molecular target: T6, his-tagged human VISTA-ECD; experiment: BLI sandwich binning; VISTA-ECD-His held by capture Ab 465.1 (competitor)
Protocol: as §4

[13] = molecular target: T6, his-tagged human VISTA-ECD; experiment: BLI sandwich binning; VISTA-ECD-His held by capture Ab 173.1 (competitor)
Protocol: as §4

[14] = molecular target: T6, his-tagged human VISTA-ECD; experiment: BLI sandwich binning; VISTA-ECD-His held by capture Ab 321.1 (competitor)
Protocol: as §4

[15] = molecular target: T6, his-tagged human VISTA-ECD; experiment: BLI sandwich binning; VISTA-ECD-His held by capture Ab 457.1 (competitor)
Protocol: as §4

[16] = molecular target: T3, His-tagged recombinant mouse VISTA-ECD …; experiment: BLI (Octet Red 96), antibody on AHC sensor
[17] = molecular target: T7, hVISTA ECD-Fc R54A, F62A, Q63A (human); experiment: ELISA on immobilized VISTA-Fc (5 µg/mL), antibody at 10 µg/mL
T7 construct: also called human VISTA-Fc 54A62A63A; triple VISTA-Fc mutant
T7 sequence (chain, as listed by the source R54A F62A Q63A R54A F62A Q63A): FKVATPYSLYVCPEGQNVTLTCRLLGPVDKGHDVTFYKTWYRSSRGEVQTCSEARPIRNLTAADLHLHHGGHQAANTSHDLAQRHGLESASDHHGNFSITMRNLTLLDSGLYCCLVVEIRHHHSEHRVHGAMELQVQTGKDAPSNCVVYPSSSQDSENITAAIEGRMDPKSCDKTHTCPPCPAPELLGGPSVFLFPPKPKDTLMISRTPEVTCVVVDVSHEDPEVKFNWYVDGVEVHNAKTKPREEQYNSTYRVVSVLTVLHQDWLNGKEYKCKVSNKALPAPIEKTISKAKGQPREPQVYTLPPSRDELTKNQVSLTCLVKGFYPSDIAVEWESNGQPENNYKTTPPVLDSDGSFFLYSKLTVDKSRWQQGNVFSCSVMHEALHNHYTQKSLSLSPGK
Protocol: as §3

T5 sequence (chain, as listed by the source): as the sequence (chain, as listed by the source R54A F62A Q63A R54A F62A Q63A) above

| Binder | EC50 [2] | Response [3] | endpoint absorbance (450 nm) [4] | endpoint absorbance (450 nm) [6] | endpoint absorbance (450 nm) [7] | ELISA Abs 450 nm [8] [Abs 450 nm] | BLI response of secondary antibody [9] [nm] | BLI response of secondary antibody [10] [nm] | BLI response of secondary antibody [11] [nm] | BLI response of secondary antibody [12] [nm] | BLI response of secondary antibody [13] [nm] | BLI response of secondary antibody [14] [nm] | BLI response of secondary antibody [15] [nm] | other results |
| --- | --- | --- | --- | --- | --- | --- | --- | --- | --- | --- | --- | --- | --- | --- |
| B1 | 0.475 µg/mL | 0.434 | 0.079 | – | – | – | – | – | – | – | – | – | – | Kd [1]: < 1 pM |
| B2 | 0.074 µg/mL and 0.5 nM | – | – | 2.02 | 1.89 | – | – | – | – | – | – | – | – | Response [5]: 0.334 |
| B3 | 0.394 µg/mL | 0.456 | 0.082 | 2.04 | 2 | – | – | – | – | – | – | – | – | – |
| B4 | – | – | – | – | – | 1.6 | 0.0427 | 0.0285 | 0.0173 | 0.044 | 0.0675 | 0.0481 | 0.0481 | – |
| B5 | – | – | – | – | – | 1.65 | 0.0319 | 0.0261 | 0.066 | 0.0505 | 0.0651 | 0.0542 | 0.0507 | – |
| B6 | – | – | – | – | – | – | – | – | – | – | – | – | – | binding result [16]: no binding (tested: 50 nM-300 nM); binding result [17]: binds |

From patent US20240132593A1 (KINETA, published 2024)
